target: UbcH5B (UniProt P62837 1-147); assay: SPR

Binder	Kd
GST-CBL47–435 M222F (domain or fragment) PPGTVDKKMVEKCWKLMDKVVRLCQNPKLALKNSPPYILDLLPDTYQHLRTILSRYEGKMETLGENEYFRVFMENLMKKTKQTISLFKEGKERMYEENSQPRRNLTKLSLIFSHMLAELKGIFPSGLFQGDTFRITKADAAEFWRKAFGEKTIVPWKSFRQALHEVHPISSGLEAFALKSTIDLTCNDYISVFEFDIFTRLFQPWSSLLRNWNSLAVTHPGYMAFLTYDEVKARLQKFIHKPGSYIFRLSCTRLGQWAIGYVTADGNILQTIPHNKPLFQALIDGFREGFYLFPDGRNQNPDLTGLCEPTPQDHIKVTQEQYELYCEMGSTFQLCKICAENDKDVKIEPCGHLMCTSCLTSWQESEGQGCPFCRCEIKGTEPIVVDPFD	320 µM
GST-CBL47–435 Y368F pY371 K389A (domain or fragment, phosphotyrosine at 371) PPGTVDKKMVEKCWKLMDKVVRLCQNPKLALKNSPPYILDLLPDTYQHLRTILSRYEGKMETLGENEYFRVFMENLMKKTKQTISLFKEGKERMYEENSQPRRNLTKLSLIFSHMLAELKGIFPSGLFQGDTFRITKADAAEFWRKAFGEKTIVPWKSFRQALHEVHPISSGLEAMALKSTIDLTCNDYISVFEFDIFTRLFQPWSSLLRNWNSLAVTHPGYMAFLTYDEVKARLQKFIHKPGSYIFRLSCTRLGQWAIGYVTADGNILQTIPHNKPLFQALIDGFREGFYLFPDGRNQNPDLTGLCEPTPQDHIKVTQEQFELYCEMGSTFQLCKICAENDADVKIEPCGHLMCTSCLTSWQESEGQGCPFCRCEIKGTEPIVVDPFD	81 µM
GST-CBL47–435 Y368F pY371 V431A (domain or fragment, phosphotyrosine at 371) PPGTVDKKMVEKCWKLMDKVVRLCQNPKLALKNSPPYILDLLPDTYQHLRTILSRYEGKMETLGENEYFRVFMENLMKKTKQTISLFKEGKERMYEENSQPRRNLTKLSLIFSHMLAELKGIFPSGLFQGDTFRITKADAAEFWRKAFGEKTIVPWKSFRQALHEVHPISSGLEAMALKSTIDLTCNDYISVFEFDIFTRLFQPWSSLLRNWNSLAVTHPGYMAFLTYDEVKARLQKFIHKPGSYIFRLSCTRLGQWAIGYVTADGNILQTIPHNKPLFQALIDGFREGFYLFPDGRNQNPDLTGLCEPTPQDHIKVTQEQFELYCEMGSTFQLCKICAENDKDVKIEPCGHLMCTSCLTSWQESEGQGCPFCRCEIKGTEPIVADPFD	43 µM
GST-CBL354–435 WT (domain or fragment) EPTPQDHIKVTQEQYELYCEMGSTFQLCKICAENDKDVKIEPCGHLMCTSCLTSWQESEGQGCPFCRCEIKGTEPIVVDPFD	42 µM
GST-CBL354–435 Y368F (domain or fragment) EPTPQDHIKVTQEQFELYCEMGSTFQLCKICAENDKDVKIEPCGHLMCTSCLTSWQESEGQGCPFCRCEIKGTEPIVVDPFD	38 µM
GST-CBL354–435 Y368F pY371 (domain or fragment, phosphotyrosine at 371) EPTPQDHIKVTQEQFELYCEMGSTFQLCKICAENDKDVKIEPCGHLMCTSCLTSWQESEGQGCPFCRCEIKGTEPIVVDPFD	18 µM
GST-CBL354–435 Y371F (domain or fragment) EPTPQDHIKVTQEQYELFCEMGSTFQLCKICAENDKDVKIEPCGHLMCTSCLTSWQESEGQGCPFCRCEIKGTEPIVVDPFD	50 µM
GST-CBL354–435 pY371 (domain or fragment, phosphotyrosine at 371) EPTPQDHIKVTQEQYELYCEMGSTFQLCKICAENDKDVKIEPCGHLMCTSCLTSWQESEGQGCPFCRCEIKGTEPIVVDPFD	20 µM
